“And” between values parts separate entries of the source, which are not always exact repeats. Identical values can stand only once.
Experiments:
[1] = biological target: T1, full-length D6E large terminase (1–427) (synthetic construct, UniProt Z9WCS4P2M6); assay: thermal shift assay (SYPRO Orange); format: binding; settings: 5 mM nucleotide, 5 mM MgCl2, 5 mM HEPES pH 7.5, 5 mM potassium glutamate, 5 μM protein
T1 construct: full length residues 1-427; N-terminal His6-3C tag cleaved; codon-optimized synthetic gene, E. coli BL21-Gold(DE3); monomer by SEC, monomer to pentamer by AUC, active oligomer proposed pentameric
T1 sequence (Z9WCS4P2M6 4-430): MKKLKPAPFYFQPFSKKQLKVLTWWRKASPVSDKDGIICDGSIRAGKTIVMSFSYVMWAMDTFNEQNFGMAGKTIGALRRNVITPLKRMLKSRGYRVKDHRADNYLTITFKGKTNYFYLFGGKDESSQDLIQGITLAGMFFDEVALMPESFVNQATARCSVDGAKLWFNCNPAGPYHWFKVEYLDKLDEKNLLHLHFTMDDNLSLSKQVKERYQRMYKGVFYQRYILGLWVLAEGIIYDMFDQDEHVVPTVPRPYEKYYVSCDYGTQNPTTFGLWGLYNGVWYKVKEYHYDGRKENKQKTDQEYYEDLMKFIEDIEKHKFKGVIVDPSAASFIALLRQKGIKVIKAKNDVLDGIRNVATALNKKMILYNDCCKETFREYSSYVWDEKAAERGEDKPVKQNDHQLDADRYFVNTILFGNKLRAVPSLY

[2] = tested on: Nc1ncnc2c1ncn2[C@@H]1O[C@H](COP(=O)(O)OP(=O)(O)OP(=O)(O)O)[C@@H](O)[C@H]1O; assay: purified protein; settings: 10 mM HEPES pH 7.5, 50 mM potassium glutamate, 10 mM MgCl2, room temperature, 4.5 μM protein
[3] = biological target: D6E large terminase ATPase domain (1–234) (Geobacillus stearothermophilus bacteriophage D6E); assay: SEC; ATPase domain alone (Supplementary Figure S1C); conditions not shown

`Nc1ncnc2c1ncn2[C@@H]1O[C@H](COP(=O)(O)OP(=O)(O)O)[C@@H](O)[C@H]1O` [ADP] gave a ΔTm [1] of 2.3 °C.
With “C-terminally truncated protein (1–417) (synthetic construct)” the Km [2] was 196.72 ± 8.0 µM and the kcat [2] was 0.0583 ± 0.00067 s⁻¹.
“D6E large terminase ATPase domain (1–234) (domain or fragment)” was tested, and the stoichiometry N [3] was 4 and 5.
`Nc1ncnc2c1ncn2[C@@H]1O[C@H](COP(=O)(O)OP(=O)(O)OP(O)(O)=S)[C@@H](O)[C@H]1O` [ATP-γ-S] showed a ΔTm [1] of 7.8 °C.

From publication PMC5727402, “Structure of the large terminase from a hyperthermophilic virus reveals a unique mechanism for oligomerization and ATP hydrolysis” (Nucleic Acids Research, 2017)
